Data reported in paper PMC3156243, “Properties and Crystal Structure of Methylenetetrahydrofolate Reductase from Thermus thermophilus HB8” (PLoS ONE, 2011).

Columns and labels:
Test in all cases: purified protein
purified protein [1] = substrate: Cc1cc2nc3c(=O)[nH]c(=O)nc-3n(C[C@H](O)[C@H](O)[C@H](O)COP(=O)(O)OP(=O)(O)OC[C@H]3O[C@@H](n4cnc5c(N)ncnc54)[C@H](O)[C@@H]3O)c2cc1C; settings: active center of the β[…]α[…] barrel; Glu18 near the si-face of the isoalloxazine ring, Asp109 near C2; non-covalently bound; varied: cofactor
purified protein [2] = substrate: NC(=O)C1=CN([C@@H]2O[C@H](COP(=O)(O)OP(=O)(O)OC[C@H]3O[C@@H](n4cnc5c(N)ncnc54)[C@H](O)[C@@H]3O)[C@@H](O)[C@H]2O)C=CC1; settings: FAD; 25.0 °C
purified protein [3] = substrate: Nc1nc2c(c(=O)[nH]1)N1CN(c3ccc(C(=O)N[C@@H](CCC(=O)O)C(=O)O)cc3)C[C@H]1CN2; settings: FAD; 50.0 °C

B1: MTHFR (methylenetetrahydrofolate reductase) (Thermus thermophilus HB8) (protein)
chain: MKIRDLLKARRGPLFSFEFFPPKDPEGEEALFRTLEELKAFRPAFVSITYGAMGSTRERSVAWAQRIQSLGLNPLAHLTVAGQSRKEVAEVLHRFVESGVENLLALRGDPPRGERVFRPHPEGFRYAAELVALIRERYGDRVSVGGAAYPEGHPESESLEADLRHFKAKVEAGLDFAITQLFFNNAHYFGFLERARRAGIGIPILPGIMPVTSYRQLRRFTEVCGASIPGPLLAKLERHQDDPKAVLEIGVEHAVRQVAELLEAGVEGVHFYTLNKSPATRMVLERLGLRPASGQP
- Km (purified protein [1]): 5 µM
- Km (purified protein [2]): 9.7 ± 2.1 µM
- Km (purified protein [3]): 180 ± 23 µM
